T1: Cdc24-m1p (1-288 aa), GAL4 two-hybrid fusion (S. cerevisiae, UniProt P11433 1-288)
T1 construct: also called cdc24-m1 (1-288)
T1 sequence: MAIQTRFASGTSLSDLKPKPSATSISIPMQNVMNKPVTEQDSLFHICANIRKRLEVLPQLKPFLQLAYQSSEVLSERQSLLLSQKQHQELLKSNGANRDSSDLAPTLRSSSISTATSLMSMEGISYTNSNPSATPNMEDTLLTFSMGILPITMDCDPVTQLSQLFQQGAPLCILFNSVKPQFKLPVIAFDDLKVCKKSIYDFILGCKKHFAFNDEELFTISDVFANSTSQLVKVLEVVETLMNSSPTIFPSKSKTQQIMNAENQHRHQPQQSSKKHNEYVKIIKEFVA

T2: Cdc24-m3p (1-288 aa), GAL4 two-hybrid fusion (S. cerevisiae, UniProt P11433 1-288)
T2 sequence: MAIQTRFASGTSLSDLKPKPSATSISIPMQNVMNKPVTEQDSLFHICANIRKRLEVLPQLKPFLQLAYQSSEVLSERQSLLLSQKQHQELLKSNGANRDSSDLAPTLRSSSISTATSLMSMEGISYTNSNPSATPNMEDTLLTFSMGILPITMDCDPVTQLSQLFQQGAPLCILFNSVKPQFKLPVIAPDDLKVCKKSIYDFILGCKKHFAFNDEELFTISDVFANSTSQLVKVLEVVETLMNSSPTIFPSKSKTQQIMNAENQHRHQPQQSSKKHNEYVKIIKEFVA

T3: GSTCdc24p (1-127 aa) (S. cerevisiae, UniProt P11433 1-127)
T3 construct: not shown: glutathione-S-transferase as encoded by pGEX-2T (Pharmacia)
T3 sequence (looked up): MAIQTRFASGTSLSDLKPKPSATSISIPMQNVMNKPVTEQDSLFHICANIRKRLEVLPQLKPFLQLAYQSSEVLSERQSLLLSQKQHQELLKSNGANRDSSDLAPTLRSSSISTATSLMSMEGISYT


Assays:
[1] = target: T4, Cdc24p (1-160 aa) fused to GAL4 DBD (S. cerevisiae, UniProt P04386 1-147; P11433 1-160); experiment: yeast two-hybrid, Cdc24p fragments fused to DBD
T4 construct: also called amino-terminal fragment consisting of the first 160 amino acid residues
Procedure: (§1) Plasmids were transformed into HF7c. For determination of STE18 requirement, PCR-based geene disruption was carried out in PJ69-4A (MATa, trp1-901, leu2-3,112, ura3-52, his3-200, gal4D, gal80D, GAL2-ADE2, LYS2::GAL1-HIS3, met2::GAL7-lacZ)²⁹, replacing the entire STE18 ORF with K. Lactis URA3³⁰. For all two-hybrid experiments, equal amounts of transfonnants were spotted on SC-leu-trp and SC-leu-trp-his plates, identical results were obtained with at least four transformants, and for Dste18 two independent deletion strains. All strains for two-hybrid analyses expressed similar amounts of AD- and DBD- fusion proteins of the expected sizes, as determined by SDS-PAGE and immuno-blotting.
(§2) cdc24-m mutants are defective in mating and Ste4p (Gβ) binding. a, Location of Cdc24p mating mutations. Mating patches show diploids from mating with MATa WT tester. Ste4 2-H patch growth on -leu-trp-his indicates an interaction of Cdc24p (1-288 aa) with Ste4p. Similar results were obtained using a LacZ reporter in strain Y187 (relative Miller Units 100 for Cdc24/Ste4 and 3 for Cdc24-m1/Ste4). b, Two hybrid interactions of Cdc24p. Fror interactions with Ste4p, a fragment of Cdc24p (1-288 aa) was used, however, fill length Cdc24p also interats with Ste4p. c, Region of Cdc24p necessary for Ste4p interaction. […]

[2] = target: T1, Cdc24-m1p (1-288 aa), GAL4 two-hybrid …; experiment: yeast two-hybrid, growth on -leu-trp-his
Procedure: as §1, §2

[3] = target: T2, Cdc24-m3p (1-288 aa), GAL4 two-hybrid …; experiment: yeast two-hybrid, growth on -leu-trp-his
Procedure: as §1, §2

GST = target: T5, GST (UniProt P08515 1-218 = GST); experiment: GSH-agarose pull-down from mixed bacterial extracts, immunoblot
T5 construct: Control; also called GST alone; glutathione-S-transferase
T5 sequence (P08515 whole entry): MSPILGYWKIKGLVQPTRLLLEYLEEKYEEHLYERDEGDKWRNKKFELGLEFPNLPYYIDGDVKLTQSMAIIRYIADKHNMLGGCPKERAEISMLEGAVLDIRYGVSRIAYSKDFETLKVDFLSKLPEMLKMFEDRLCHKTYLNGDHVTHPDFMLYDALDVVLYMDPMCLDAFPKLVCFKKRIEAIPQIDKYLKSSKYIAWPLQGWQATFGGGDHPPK
Procedure: (§3) A fragment of CDC24 (1-472 aa) in pGEX-2T (Pharmacia) and His₆Ste4p (pTrcSte4) were expressed in E. coli. Cells were resuspended in buffer A (PBS, 0.1% TX-100, Phenyl Methyl Sulfonyl Fluoride (PMSF), leupeptin, chymostatin, pepstatin, aprotinin) and lysed by snap freezing in liquid nitrogen followed by sonicatioin. Insoluble material was removed by centrifuigation (10,000 g). Mixed supernatants (denoted cell extracts) containing His₆Ste4 and GSTCdc24 fusions were incubated with GSH-agarose (Sigma Chemical Co.) at 4° for 1 hr. Resin was washed 3 times with buffer A. Resin samples (referred to as eluates) and extracts were analyzed by SDS-PAGE, immuno-blottinig probed with Omni-probe anti-sera (Santa Cruz), and visualised with enhanced chemiluhniuescence (Amershan).
as §2

GSTCdc24p (1-127 aa) = target: T3, GSTCdc24p (1-127 aa); experiment: as above
Procedure: as §3, §2

Binder | binding result [1] | binding result [2] | binding result [3] | binding result (GST) | binding result (GSTCdc24p (1-127 aa))
Ste4p, GAL4 two-hybrid fusion (other, not shown: small tags and cut ends, also called Gβ) MAHQMDSITYSNNVTQQYIQPQSLQDISAVEEEIQNKIEAARQESKQLHAQINKAKHKIQDASLFQMANKVTSLTKNKINLKPNIVLKGHNNKISDFRWSRDSKRILSASQDGFMLIWDSASGLKQNAIPLDSQWVLSCAISPSSTLVASAGLNNNCTIYRVSKENRVAQNVASIFKGHTCYISDIEFTDNAHILTASGDMTCALWDIPKAKRVREYSDHLGDVLALAIPEEPNLENSSNTFASCGSDGYTYIWDSRSPSAVQSFYVNDSDINALRFFKDGMSIVAGSDNGAINMYDLRSDCSIATFSLFRGYEERTPTPTYMAANMEYNTAQSPQTLKSTSSSYLDNQGVVSLDFSASGRLMYSCYTDIGCVVWDVLKGEIVGKLEGHGGRVTGVRSSPDGLAVCTGSWDSTMKIWSPGYQ | no binding | no binding | no binding |  | 
His6Ste4p (other, Expressed in E. coli; migrates as a doublet due to proteolysis; also called Hexahistidine-tagged Ste4p; pTrcSte4; not shown: hexahistidine tag with the leader of the pTrc vector) MAHQMDSITYSNNVTQQYIQPQSLQDISAVEEEIQNKIEAARQESKQLHAQINKAKHKIQDASLFQMANKVTSLTKNKINLKPNIVLKGHNNKISDFRWSRDSKRILSASQDGFMLIWDSASGLKQNAIPLDSQWVLSCAISPSSTLVASAGLNNNCTIYRVSKENRVAQNVASIFKGHTCYISDIEFTDNAHILTASGDMTCALWDIPKAKRVREYSDHLGDVLALAIPEEPNLENSSNTFASCGSDGYTYIWDSRSPSAVQSFYVNDSDINALRFFKDGMSIVAGSDNGAINMYDLRSDCSIATFSLFRGYEERTPTPTYMAANMEYNTAQSPQTLKSTSSSYLDNQGVVSLDFSASGRLMYSCYTDIGCVVWDVLKGEIVGKLEGHGGRVTGVRSSPDGLAVCTGSWDSTMKIWSPGYQ |  |  |  | no binding | no binding
